Reference: the RNAGym collection of RNA variant scans (doi:10.1021/acssynbio.7b00057)

B1: Pistol ribozyme (parent)
chain: GGGUCGUUGUUCCAUAAUCGCGUGGAUAUGGCACGCAAGUUUCUACCGGGCACCGUAAAUGUCCGACUGGAGCCGUUCGGGCGGCUAUAAACAGACCUCAGGCCCGAAGCGUGGCGGCACCUGCCGCCGGUGGUAAAAAAGAUCGGAAGAGCACACGUCU

Variants of: B1
Assay: aptazyme ON/OFF ratio, guanine; higher = stronger switching; co-transcriptional cleavage with and without guanine

| Variant | aptazyme ON/OFF ratio |
| --- | --- |
| U7C U8C U11A C12U C13A | 1.16 |
| U10G U11G C12U C13G | 1.3 |
| U7A U8G G9A U10C C12A C13U | 1.12 |
| U7G U8G G9A U10A C12U C13A | 1.22 |
| U8G G9C U10A U11A C12G C13U | 1.18 |
| U8C G9A U10A U11A C12G C13U | 1.21 |
| U7C U8G G9A U10G C12G | 1.34 |
| U7C U8C G9C U10G U11G C12U C13A | 1.08 |
| U8C U10A U11A C12U C13U | 1.26 |
| U7C U8C G9C U11A C12A C13U | 1.13 |
| U7A U8C G9U U10C U11G C12G C13A | 1.17 |
| U7C G9U U10C U11A C13U | 1.16 |
| U7C G9C U11A C12U C13U | 1.05 |
| U7C U8C U11G C12G C13U | 1.09 |
| U10G U11A C12U C13A | 1.28 |
| U8C G9C U10A C12G C13A | 1.2 |
| U7A U8A G9U U10G C13G | 1.21 |
| U7C U8G U10G U11C C12G C13A | 1.16 |
| U7A G9A U10A U11A C12A C13A | 1.41 |
| U7G U8G G9A U10G U11G C12A C13G | 1.15 |
| U7C U8A G9A U10C U11C C12U C13U | 1.04 |

| Variant | aptazyme ON/OFF ratio |
| --- | --- |
| U8C U10G U11A C12U C13A | 1.35 |
| U7C U8C G9U U10C U11C C12U C13A | 1.08 |
| U7A U8A G9U U10C U11A C13A | 1.22 |
| U8A U11C C12U C13G | 1.33 |
| U7A U8G G9A U10G U11G C12U C13G | 1 |
| U7A U8G G9A U10G U11G C12U C13U | 1.22 |
| U7G U8G U10G U11A C12A | 1.18 |
| U7C U8C G9C U10G U11A C12G C13A | 1.05 |
| U7C U8C U10C U11A C12U | 1.32 |
| U7G U8G G9A U10G C12A C13A | 1.1 |
| U7A U8G G9A U10A U11G C12A C13G | 1.37 |
| U7A U8C G9C U10G U11A C12U C13U | 1.03 |
| U8G G9U C12U C13U | 1.14 |
| U7A U8C G9C C12A C13G | 1.14 |
| U7C U8C G9C U10A C13A | 1.16 |
| U7A G9A U10C U11C C12G C13A | 1.07 |
| U7A U8C G9C U10A U11G C12U C13G | 1.14 |
| U7A U8C G9C U10G U11C C13G | 1.33 |
| U7A U8A G9A U11C C12A | 1.16 |
| U7C G9U U10G C13U | 1.37 |
| U7G U8G U10C U11G C12G C13A | 1.19 |

| Variant | aptazyme ON/OFF ratio |
| --- | --- |
| U7A U8G G9U U10G U11C C13A | 1.12 |
| U7G U11A C12U | 1.68 |
| U7G U8A G9U U10G U11C C12A C13A | 1.05 |
| U8G G9A U11G C12A | 1.08 |
| U7G G9C U10A U11C C12A C13A | 1.34 |
| G9U U10A C12G C13U | 1.21 |
| U7A U8A G9C U10A U11A C12A C13A | 1.37 |
| U7G U8A G9A U10C U11C | 1.06 |
| U7G G9C U10A U11A C13G | 1.11 |
| U8A G9C U10A U11A C12G C13G | 1.23 |
| U7A U8A U11C C12A C13G | 1.42 |
| U7G U8A G9A U10G U11A C12U | 0.997 |
| U7C U10C U11C C12A C13A | 1.25 |
| U8G U11A C12G | 1.1 |
| U7C G9A U11C C12U C13U | 1.11 |
| U7C U8C G9U U10G U11C C12A C13U | 1.1 |
| G9A U10C U11A C12G C13A | 1.14 |
| U7G U8C G9C U10A U11C C12A | 1.33 |
| U7A U10C U11A C12A C13U | 1.11 |
| U7C U10G U11C C13U | 1.02 |
| U7G G9C U10C U11G C12U C13U | 1.34 |

| Variant | aptazyme ON/OFF ratio |
| --- | --- |
| U7C G9A U11A C13A | 1.21 |
| U7A G9U U10G U11A C12G C13U | 1.31 |
| U8C G9C U11G C12G C13A | 1.12 |
| U7A U8C G9A U10A U11G C12G C13G | 1.31 |
| U7G U10G U11A C12U | 1.1 |
| U8C G9C U10C U11C C12G | 1.08 |
| U8A G9C U10G U11G C13A | 1.23 |
| U7C G9A U11C C12U | 1.17 |
| U7C U8C U10G U11C C13A | 1.37 |
| U7C U8C U10G U11C C13G | 1.16 |
| U7A U8C G9C U10A U11A C12A C13A | 1.05 |
| U7C U8G G9C U11C C12G C13A | 1.4 |
| U7A U8G G9A U10C U11C C12A | 1.13 |
| U7G U8G G9A U10G U11G C12A | 1.21 |
| U7G U8A G9U U10G U11G C13A | 1.3 |
| U8G U11G C12A C13U | 1.21 |
| U7C U10C U11G C12A | 1.35 |
| U7C U8A G9C U10A U11C C12U | 1.08 |
| U8C G9C U10C C12A C13U | 1.03 |
| U7A U8C U11G C12G C13G | 1.1 |
